What was measured:
[1] = biological target: T1, recombinant human TNF-α (Product 210-TA-050, R&D) (human, UniProt P01375 77-233); test: SPR, Biacore T100, TNFα amine-coupled to CM5 chip, antibody in flow
T1 construct: Bought protein; Amine-coupled to the chip in SPR, biotin-labelled in the P75 ELISA, FITC-labelled in the U937 assay; also called rhTNF-α; Recombinant TNFα (R&D)
Method: After each examination, they were washed with 5 μl of 50 mM hydrochloric acid aqueous solution at a flow rate of 3 μl/min so as to wash away the residual antibodies from the immobilized ligands. The binding curves were subjected to nonlinear regression analysis using BIAevalution software (T100 evalution version 2.0, Biacore).

[2] = biological target: T1, recombinant human TNF-α (Product …); test: competition ELISA: biotin-TNF-α (10 ng/ml) on coated P75 receptor-Fc, antibody titrated; experiment 1
Method: (§1) 10 μg/ml of P75 receptor-Fc fusion protein (which was prepared according to the method described in Chinese Patent Application No. 01132074.5 entitled “Recombinant genes, fusion genes and products of the soluble fragment of Tumor Necrosis Factor Receptor” filed on Oct. 31, 2001) was used to coat ELIAS plates and reacted at 37° C. for 2 h; 3% BSA-PBS was used to block the plate wells and reacted overnight at 4° C. […] The diluted samples and control samples were added to washed ELIAS plates with 100 μl/well and reacted at 37° C. for 1 h; the ELIAS plates were washed; HRP-avidin (Zymed) was diluted at 1:1000 with PBS and added to the ELIAS plates with 100 μl/well and reacted at 37° C. for 1 h; the ELIAS plates were washed; equal volumes of A solution and B solution (Jingmei BioTech Co. Ltd.) of TMB substrate for HRP were mixed and added to the ELIAS plates with 100 μl/well and reacted at room temperature for 10 minutes in darkness; each well was added with 100 μl of 0.5M sulphuric acid to stop the reaction. Absorbance at […] was measured using microplate reader. The concentration of samples was used as x-coordinate and absorbance was used as y-coordinate.

[3] = biological target: T1, recombinant human TNF-α (Product …); test: competition ELISA: biotin-TNF-α (10 ng/ml) on coated P75 receptor-Fc, antibody titrated; average of 3
Method: as §1

[4] = biological target: T1, recombinant human TNF-α (Product …); test: flow cytometry competition: FITC-TNF-α (100 ng/ml) on U937 cells, antibody titrated; experiment 3
Method: (§2) U937 cells (ATCC CRL1593) were cultured in RPMI-1640 medium (GIBCO) containing 10% fetal bovine serum (JRH). […] The cells at logarithmic growth phase were counted and then centrifuged at 200 g for 5 min. Supernatant was removed and cell pellets were resuspended in PBS containing 1% fetal bovine serum. The cells were adjusted to a concentration 1×10⁶/ml, and then distributed into flow cytometry test tubes, with 100 μl/tube. […] The diluted samples and control samples were added into flow cytometry test tubes, with 100 μl/tube, and reacted at 4° C. for 1 hour in darkness; the cells were washed twice with PBS containing 1% fetal bovine serum, and centrifuged at 200 g for 5 min each time. Supernatant was removed and cell pellets were resuspended in 300 μl of PBS containing 1% fetal bovine serum. Flow cytometry was used to measure the fluorescence intensity of each tube. Sample concentration was plotted on the x-coordinate and […] was plotted on the y-coordinate.

[5] = biological target: T1, recombinant human TNF-α (Product …); test: flow cytometry competition: FITC-TNF-α (100 ng/ml) on U937 cells, antibody titrated; average of 3
Method: as §2

[6] = biological target: T1, recombinant human TNF-α (Product …); test: competition ELISA: biotin-TNF-α (10 ng/ml) on coated P75 receptor-Fc, antibody titrated; experiment 2
Method: as §1

[7] = biological target: T1, recombinant human TNF-α (Product …); test: cell-based or functional assay
[8] = biological target: T1, recombinant human TNF-α (Product …); test: competition ELISA: biotin-TNF-α (10 ng/ml) on coated P75 receptor-Fc, antibody titrated; experiment 3
Method: as §1

[9] = biological target: T1, recombinant human TNF-α (Product …); test: flow cytometry competition: FITC-TNF-α (100 ng/ml) on U937 cells, antibody titrated; experiment 2
Method: as §2

[10] = biological target: T1, recombinant human TNF-α (Product …); test: flow cytometry competition: FITC-TNF-α (100 ng/ml) on U937 cells, antibody titrated; experiment 1
Method: as §2

T1 sequence (P01375 77-233 limits assumed): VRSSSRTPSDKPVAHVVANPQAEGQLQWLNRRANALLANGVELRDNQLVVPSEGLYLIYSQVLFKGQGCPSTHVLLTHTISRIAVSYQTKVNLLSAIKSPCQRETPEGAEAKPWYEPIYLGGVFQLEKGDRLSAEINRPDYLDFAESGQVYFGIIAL

B1: fully human anti-TNF-α monoclonal antibody 4H16 (antibody, human IgG1, kappa, V domains shown)
VH: QVTLRESGPALVKPTQTLTLTCTFSGFSLSTSGMCVSWIRQPPGKALEWLALIDWDDDKYYSTSLKTRLTISKDTSKNQVVLTMTNMDPVDTATYYCARILVDIVATITNDAFDVWGQGTMVTVSS
VL: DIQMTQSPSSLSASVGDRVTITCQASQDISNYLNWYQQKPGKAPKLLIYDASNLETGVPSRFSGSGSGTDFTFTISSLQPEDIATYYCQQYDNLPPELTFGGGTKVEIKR
notes: The genes carried a signal peptide at the 5' end; also called fully human antibody 4H16
Kd [1]: 0.36 nM
koff [1]: 5.7e-05 s⁻¹
kon [1]: 158000 M⁻¹ s⁻¹
IC50 [2]: 0.25 µg/mL
IC50 [3]: 0.28 µg/mL
IC50 [4]: 0.97 µg/mL
IC50 [5]: 0.96 µg/mL
IC50 [6]: 0.31 µg/mL
IC50 of resistance to TNF-α-mediated killing of L929 cells (MTS), average [7]: 0.0572 µg/mL
IC50 of resistance to TNF-α-mediated killing of L929 cells (MTS), experiment 1 [7]: 0.0592 µg/mL
IC50 of resistance to TNF-α-mediated killing of L929 cells (MTS), experiment 2 [7]: 0.0459 µg/mL
IC50 of resistance to TNF-α-mediated killing of L929 cells (MTS), experiment 3 [7]: 0.0664 µg/mL
IC50 [8]: 0.27 µg/mL
IC50 [9]: 1.03 µg/mL
IC50 [10]: 0.89 µg/mL
